Where no end group is shown, it is not given here. [ ]: non-standard residue; d: D form. Tle = CC(C)(C)[C@H](N)C(=O)O; Ac6c = NC1(C(=O)O)CCCCC1; cyHex = not defined here; cyPen = not defined here; Ac5c = NC1(C(=O)O)CCCC1; Sar = CNCC(=O)O
T1: human angiotensin 2 type 1 receptor (human, UniProt P30556 1-359)
T1 sequence (looked up): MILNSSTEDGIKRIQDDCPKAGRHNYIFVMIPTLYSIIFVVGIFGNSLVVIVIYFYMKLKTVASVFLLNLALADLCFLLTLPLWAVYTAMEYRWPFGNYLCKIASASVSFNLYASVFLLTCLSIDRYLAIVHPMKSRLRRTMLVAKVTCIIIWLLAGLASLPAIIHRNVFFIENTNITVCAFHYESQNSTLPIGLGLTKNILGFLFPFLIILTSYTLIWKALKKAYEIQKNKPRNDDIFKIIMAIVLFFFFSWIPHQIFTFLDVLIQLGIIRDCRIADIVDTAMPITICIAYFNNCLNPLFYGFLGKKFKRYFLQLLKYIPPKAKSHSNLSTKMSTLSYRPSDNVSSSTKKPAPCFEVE

T2: rat angiotensin 2 type 1 receptor (rat, UniProt P25095 1-359)
T2 sequence (looked up): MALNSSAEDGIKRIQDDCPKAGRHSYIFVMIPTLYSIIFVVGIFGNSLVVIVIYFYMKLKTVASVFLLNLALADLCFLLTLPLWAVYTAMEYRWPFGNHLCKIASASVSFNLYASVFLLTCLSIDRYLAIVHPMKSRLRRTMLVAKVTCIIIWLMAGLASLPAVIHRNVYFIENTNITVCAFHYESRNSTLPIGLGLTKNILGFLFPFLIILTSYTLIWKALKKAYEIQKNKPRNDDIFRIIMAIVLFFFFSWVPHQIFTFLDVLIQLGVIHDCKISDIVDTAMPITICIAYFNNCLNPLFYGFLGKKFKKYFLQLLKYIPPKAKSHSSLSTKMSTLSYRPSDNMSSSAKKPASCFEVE

B1: SEQ ID NO: 18 (Sar-Arg-Val-Tyr-cyPen-His-Pro-Ile) (peptide)
peptide: [Sar]RVY[Ac5c]HPI
B2: SEQ ID NO: 54 (Sar-Arg-Val-Tyr-cyHex-His-Pro-Trp) (peptide)
peptide: [Sar]RVY[Ac6c]HPW
B3: SEQ ID NO: 21 (Sar-Arg-Val-Tyr-cyPen-His-Pro-Thr) (peptide)
peptide: [Sar]RVY[Ac5c]HPT
B4: SEQ ID NO: 55 (Sar-Arg-Val-Tyr-cyHex-His-Pro-Tyr) (peptide)
peptide: [Sar]RVY[Ac6c]HPY
B5: SEQ ID NO: 19 (Sar-Arg-Val-Tyr-cyPen-His-Pro-Leu) (peptide)
peptide: [Sar]RVY[Ac5c]HPL
B6: SEQ ID NO: 23 (Sar-Arg-Val-Tyr-cyPen-His-Pro-Met) (peptide)
peptide: [Sar]RVY[Ac5c]HPM
B7: SEQ ID NO: 38 (Sar-Arg-Val-Tyr-cyHex-His-Pro-Gln) (peptide)
peptide: [Sar]RVY[Ac6c]HPQ
B8: SEQ ID NO: 22 (Sar-Arg-Val-Tyr-cyPen-His-Pro-Ser) (peptide)
peptide: [Sar]RVY[Ac5c]HPS
B9: SEQ ID NO: 3 (Sar-Arg-Val-Tyr-cyPen-His-Pro-Ala) (peptide)
peptide: [Sar]RVY[cyPen]HPA
modifications: reading uncertain; also: printed as Sar-Arg-Val-Tyr-cyPen-His-Pro-Ala
B10: SEQ ID NO: 24 (Sar-Arg-Val-Tyr-cyPen-His-Pro-Phe) (peptide)
peptide: [Sar]RVY[Ac5c]HPF
B11: SEQ ID NO: 20 (Sar-Arg-Val-Tyr-cyPen-His-Pro-Val) (peptide)
peptide: [Sar]RVY[Ac5c]HPV
B12: SEQ ID NO: 2 (Sar-Arg-Val-Tyr-cyHex-His-Pro-Ala) (peptide)
peptide: [Sar]RVY[cyHex]HPA
modifications: reading uncertain; also: printed as Sar-Arg-Val-Tyr-cyHex-His-Pro-Ala
B13: SEQ ID NO: 39 (Sar-Arg-Val-Tyr-cyHex-His-Pro-Pro) (peptide)
peptide: [Sar]RVY[Ac6c]HPP
B14: SEQ ID NO: 56 (Sar-Arg-Val-Tyr-cyHex-His-Pro-AA02) (peptide)
peptide: [Sar]RVY[Ac6c]HP[Tle]

The binders below were run against T1, human angiotensin 2 type 1 receptor (assay: cell-based or functional assay).

Binder	IP1 G-protein assay EC50 [nM]	IP1 G-protein assay Span	IP1 G-protein assay pEC50
B1	> 1.3	< 103	< 9.2
B2	> 1.3	< 103	< 9.2
B3	> 1.3		> 9.2
B4	> 1.3	< 103	< 9.2
B5	> 1.3	< 103	< 9.2
B6	> 1.3	< 103	< 9.2
B7	> 1.3	< 103	< 9.2
B8	> 1.3		> 9.2
B9	> 10000		> 9.2
B10	< 1.3	> 103	< 9.2
B11	> 1.3	< 103	< 9.2
B12		< 103	< 9.2
B13	> 1.3	< 103	< 9.2
B14	> 1.3	< 103	< 9.2

The binders below were run against T2, rat angiotensin 2 type 1 receptor (assay: cell-based or functional assay).

Binder	IP1 G-protein assay EC50 [nM]	IP1 G-protein assay Span	IP1 G-protein assay pEC50
B1	> 0.6	< 104	< 9.2
B2	> 0.6	< 104	< 9.2
B3	> 0.6	< 104	< 9.2
B4	> 0.6	< 104	< 9.2
B5	> 0.6		> 9.2
B6	> 0.6	< 104	< 9.2
B7	> 0.6	< 104	< 9.2
B8	> 0.6	< 104	< 9.2
B9	> 0.6		> 9.2
B10	> 0.6	< 104	< 9.2
B11	> 0.6	< 104	< 9.2
B12	> 0.6		> 9.2
B13	> 0.6	< 104	< 9.2
B14	> 0.6	< 104	< 9.2

Molecular target: T1, human angiotensin 2 type 1 receptor
Assay: cell-based or functional assay
Remark: another data set of the same source

Binder	beta-arrestin2 assay EC50 [nM]	beta-arrestin2 assay Span	beta-arrestin2 assay pEC50
B1	> 3.2	< 101	< 8.5
B2	> 3.2	< 101	< 8.5
B3	> 3.2	< 101	< 8.5
B4	> 3.2	< 101	< 8.5
B5	> 3.2	< 101	< 8.5
B6	> 3.2	< 101	< 8.5
B7	> 3.2	< 101	< 8.5
B8	> 3.2	< 101	< 8.5
B9		< 101	
B10	> 3.2	> 101	< 8.5
B11	> 3.2	< 101	< 8.5
B12		< 101	
B13	> 3.2	< 101	< 8.5
B14	> 3.2	< 101	< 8.5

Molecular target: T2, rat angiotensin 2 type 1 receptor
Assay: cell-based or functional assay
Remark: another data set of the same source

Binder	beta-arrestin2 assay EC50 [nM]	beta-arrestin2 assay Span	beta-arrestin2 assay pEC50
B1	> 3.2	< 105	< 8.5
B2	> 3.2	< 105	< 8.5
B3	> 3.2	< 105	< 8.5
B4	> 3.2	< 105	< 8.5
B5	> 3.2	< 105	< 8.5
B6	> 3.2	< 105	< 8.5
B7	> 3.2	< 105	< 8.5
B8	> 3.2	< 105	< 8.5
B9		< 105	
B10	> 3.2	< 105	< 8.5
B11	> 3.2	< 105	< 8.5
B12		< 105	
B13	> 3.2	< 105	< 8.5
B14	> 3.2	< 105	< 8.5

Source: patent US20150105316A1 (TREVENA, published 2015)
